Experimental data: patent US7429564B2, “Oral insulin therapy” (Emisphere Technologies, Inc., priority 2002, dated 2008)

Details: monkey, in vivo

Substance: oral insulin alone: recombinant human zinc insulin given orally without delivery agent
- Absolute bioavailability of insulin: ≤ 1%
